# Key:
# mouse FcγRII [1] = target: T1, mouse FcγRII (mouse, UniProt P08101 30-210); assay: SPR (Biacore T200); KD of H237-MB630/MRAL-k0 / KD of variant
# T1 construct: Extracellular domain with C-terminal His tag; also called mFcγRII; mFcgRII
# T1 sequence: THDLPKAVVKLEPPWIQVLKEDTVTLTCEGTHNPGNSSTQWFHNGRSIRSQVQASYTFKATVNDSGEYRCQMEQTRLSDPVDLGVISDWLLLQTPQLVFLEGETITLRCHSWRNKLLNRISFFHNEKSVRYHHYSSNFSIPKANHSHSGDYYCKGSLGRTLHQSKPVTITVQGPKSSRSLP
# mouse FcγRIII [2] = target: T2, mouse FcγRIII (mouse, UniProt P08508 31-215); assay: as above
# T2 construct: Extracellular domain with C-terminal His tag; also called mFcγRIII; mFcgRIII
# T2 chain: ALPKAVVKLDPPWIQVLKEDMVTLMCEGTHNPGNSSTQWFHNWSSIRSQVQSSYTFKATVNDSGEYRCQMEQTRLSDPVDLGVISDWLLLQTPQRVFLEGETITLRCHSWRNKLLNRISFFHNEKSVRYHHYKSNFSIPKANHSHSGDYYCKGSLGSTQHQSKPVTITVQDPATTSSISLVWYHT
# mouse FcγRII [3] = target: T1, mouse FcγRII; assay: SPR (Biacore T200); KD of H237-mIgG1/MRAL-k0 / KD of variant
# mouse FcγRIII [4] = target: T2, mouse FcγRIII; assay: as above
Binder,Relative mFcγRII-binding activity (MB630 = 1) (mouse FcγRII [1]) [fold],Relative mFcγRIII-binding activity (MB630 = 1) (mouse FcγRIII [2]) [fold],relative mFcγRII-binding activity (mIgG1 = 1) (mouse FcγRII [3]) [fold],relative mFcγRIII-binding activity (mIgG1 = 1) (mouse FcγRIII [4]) [fold]
"MB830 (antibody, mouse IgG1, kappa, CH name; VH H237 + CH, L chain MRAL-k0; copies: 2 + 2) heavy: QVQLQESGPGLVKPSETLSLTCAVSGHSISHDHAWSWVRQPPGEGLEWIGFISYSGITNYNPSLQGRVTISRDNSKNTLYLQMNSLRAEDTAVYYCARSLARTTAMDYWGEGTLVTVSSAKTTPPSVYPLAPGSAAQTNSMVTLGCLVKGYFPEPVTVTWNSGSLSSGVHTFPAVLQSDLYTLSSSVTVPSSTWPSETVTCNVAHPASSTKVDKKIVPRDCGCKPCICEPNEVELVFIFPPKPKDVLTITLTPKVTCVVVDISKDDPEVQFSWFVDDVEVHTAQTQPREEQFNSTFRSVSELPIMHQDWLNGKEFKCRVNSAAFPAFIYKTISKTKGRPKAPQVYTIPPPKEQMAKDKVSLTCMITDFFPEDITVEWQWNGQPAENYKNTQPIMDTDGSYFVYSKLNVQKSNWEAGNTFTCSVLHEGLHNHHTEKSLSHSPGK light: not shown",0.37,0.36,4.8,0.08
"MB832 (antibody, mouse IgG1, kappa, CH name; VH H237 + CH, L chain MRAL-k0; copies: 2 + 2) heavy: QVQLQESGPGLVKPSETLSLTCAVSGHSISHDHAWSWVRQPPGEGLEWIGFISYSGITNYNPSLQGRVTISRDNSKNTLYLQMNSLRAEDTAVYYCARSLARTTAMDYWGEGTLVTVSSAKTTPPSVYPLAPGSAAQTNSMVTLGCLVKGYFPEPVTVTWNSGSLSSGVHTFPAVLQSDLYTLSSSVTVPSSTWPSETVTCNVAHPASSTKVDKKIVPRDCGCKPCICEPNEVELVFIFPPKPKDVLTITLTPKVTCVVVDISKDDPEVQFSWFVDDVEVHTAQTQPREEQFNSTFRSVSELPIMHQDWLNGKEFKCRVNSAAFPAYIYKTISKTKGRPKAPQVYTIPPPKEQMAKDKVSLTCMITDFFPEDITVEWQWNGQPAENYKNTQPIMDTDGSYFVYSKLNVQKSNWEAGNTFTCSVLHEGLHNHHTEKSLSHSPGK light: not shown",0.4,0.4,5.2,0.09
"MB833 (antibody, mouse IgG1, kappa, CH name; VH H237 + CH, L chain MRAL-k0; copies: 2 + 2) heavy: QVQLQESGPGLVKPSETLSLTCAVSGHSISHDHAWSWVRQPPGEGLEWIGFISYSGITNYNPSLQGRVTISRDNSKNTLYLQMNSLRAEDTAVYYCARSLARTTAMDYWGEGTLVTVSSAKTTPPSVYPLAPGSAAQTNSMVTLGCLVKGYFPEPVTVTWNSGSLSSGVHTFPAVLQSDLYTLSSSVTVPSSTWPSETVTCNVAHPASSTKVDKKIVPRDCGCKPCICEPNEVELVFIFPPKPKDVLTITLTPKVTCVVVDISKDDPEVQFSWFVDDVEVHTAQTQPREEQFNSTFRSVSELPIMHQDWLNGKEFKCRVNSAAFPAYIERTISKTKGRPKAPQVYTIPPPKEQMAKDKVSLTCMITDFFPEDITVEWQWNGQPAENYKNTQPIMDTDGSYFVYSKLNVQKSNWEAGNTFTCSVLHEGLHNHHTEKSLSHSPGK light: not shown",1.92,1.94,25.3,0.45
"MB831 (antibody, mouse IgG1, kappa, CH name; VH H237 + CH, L chain MRAL-k0; copies: 2 + 2) heavy: QVQLQESGPGLVKPSETLSLTCAVSGHSISHDHAWSWVRQPPGEGLEWIGFISYSGITNYNPSLQGRVTISRDNSKNTLYLQMNSLRAEDTAVYYCARSLARTTAMDYWGEGTLVTVSSAKTTPPSVYPLAPGSAAQTNSMVTLGCLVKGYFPEPVTVTWNSGSLSSGVHTFPAVLQSDLYTLSSSVTVPSSTWPSETVTCNVAHPASSTKVDKKIVPRDCGCKPCICEPNEVELVFIFPPKPKDVLTITLTPKVTCVVVDISKDDPEVQFSWFVDDVEVHTAQTQPREEQFNSTFRSVSELPIMHQDWLNGKEFKCRVNSAAFPAFIERTISKTKGRPKAPQVYTIPPPKEQMAKDKVSLTCMITDFFPEDITVEWQWNGQPAENYKNTQPIMDTDGSYFVYSKLNVQKSNWEAGNTFTCSVLHEGLHNHHTEKSLSHSPGK light: not shown",1.7,1.71,22.3,0.39
